Experiment [1] has as its target T1, human IL-33 WT, reduced with DTT (human, UniProt O95760 112-270).
T1 construct: Wild-type cysteines, FLAG tag in the entry; reduced with 3 mM DTT before use; also called huIL33 wt; hu IL-33 (WT + DTT)
T1 sequence: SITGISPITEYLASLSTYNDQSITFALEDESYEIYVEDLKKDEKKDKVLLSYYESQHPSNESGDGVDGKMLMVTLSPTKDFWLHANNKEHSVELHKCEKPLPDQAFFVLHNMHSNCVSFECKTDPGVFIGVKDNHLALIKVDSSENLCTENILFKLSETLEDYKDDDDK
The experiment can be described thus: KinExA, fixed-antigen format, both partners in solution. The procedure:
(§1) HuIL33 wt was reduced in 3 mM DTT for a minimum of two hrs prior to use. Affinity determinations were made at room temperature using the fixed antigen assay format. Equilibrium binding was achieved by incubation at 25° C. for 72 hrs. Data analysis was performed with the KinExA Pro software version 3.6.5 (Sapidyne). […] The “drift correction” was used when appropriate. Multiple curves were obtained, both receptor and KD controlled, in independent experiments and analyzed using the “n-curve analysis” tool to obtain global best fit values for the KD and active concentration. The software reports each best fit value along with a 95% confidence interval.
(§2) Table 13. Affinity determinations were made using the fixed-antigen assay format. […] The 95% confidence interval, shown in parentheses with the kD, and percent error are calculated by KinExA software based on a least-squares fit of the theoretical binding equation to the measured signals.
(In general: A kinetic exclusion assay measures how much of one partner remains free in solution.)

Experiment [2] has as its target T2, human IL-33 (mm2) (human, UniProt O95760 112-270).
T2 construct: Variant in which all four cysteine residues are serine; the entry carries an N-terminal Met and a C-terminal His6; Biotinylated in some assays; also called hIL-33 (mm2); huIL-33 (mm2)
T2 chain: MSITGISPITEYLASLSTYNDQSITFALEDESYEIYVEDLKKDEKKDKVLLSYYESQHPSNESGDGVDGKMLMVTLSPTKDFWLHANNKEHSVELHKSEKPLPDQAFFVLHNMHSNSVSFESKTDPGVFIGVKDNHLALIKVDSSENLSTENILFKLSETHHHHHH
Described as above. As to the method: as §1, §2

Experiment [3] addresses T3, human IL-33 WT (R&D) (human, UniProt O95760 112-270).
T3 construct: R&D Systems Cat. No. 3625-IL/CF, wild-type cysteines; DTT pretreatment in some assays is said under assay or readout; also called IL-33 (R&D); hIL-33 (R&D)
T3 sequence: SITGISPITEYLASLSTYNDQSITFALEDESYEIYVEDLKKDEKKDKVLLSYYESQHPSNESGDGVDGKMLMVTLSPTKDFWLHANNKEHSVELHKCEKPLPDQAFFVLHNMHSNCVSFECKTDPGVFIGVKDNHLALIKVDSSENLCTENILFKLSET
As to the kind of experiment: SPR, Fab captured by anti-human Fab kit, reduced IL-33 (R&D) in solution. As to the method: (§3) Fab fragment affinity was measured by two methods, surface plasmon resonance using a BIAcore instrument, with either Fab or IL-33 captured on the chip, and solution equilibrium affinity measurements using a KinExA instrument, with both Fab and IL-33 in solution.
(§4) Surface plasmon resonance experiments were conducted in two formats.
Background: In SPR one partner is held on a chip, and binding of the other changes the refractive index at the surface.

For experiment [4], the target named is T3, human IL-33 WT (R&D). As to the kind of experiment: SPR, Fab captured by anti-human Fab kit, reduced IL-33 (R&D) in solution; captured Fab, reduced WT IL-33 in solution.
Experiment [5] deals with T2, human IL-33 (mm2). The experiment can be described thus: SPR, Fab captured by anti-human Fab kit, IL-33 in solution. As to the method:
as §3, §4

B1: 7E8 CDR graft Fab (Fab, V domains shown)
VH: EVQLVESGGGLVQPGGSLRLSCAASGFTFSSYWMYWVRQAPGKGLEWVASITPNGGNTYYPDSVKGRFTISRDNAKNSLYLQMNSLRAEDTAVYYCARGHYYYTSYSLGYWGQGTLVTVSS
VL: DIQMTQSPSSLSASVGDRVTITCKASQNINKHLDWYQQKPGKAPKLLIYFTNNLQTGVPSRFSGSGSGTDFTLTISSLQPEDFATYYCFQYNNGWTFGGGTKVEIKR
notes: also called 7E8 Fab; CDR grafted-7E8 Fab
For orientation: Kd means a measure of binding affinity in units of concentration. A higher Kd goes with a looser complex. A word on the koff: it is the first-order rate constant of dissociation. Low readings indicate a long-lived complex, high ones a short-lived complex. By kon is commonly meant the second-order rate constant of association. A high value points to faster complex formation. Consider B1, for which the Kd came to 0.00404 nM in experiment [1], 0.000351 nM with human IL-33 (mm2) [2], 0.29 nM with human IL-33 WT (R&D) [3] and 0.249 nM with human IL-33 (mm2) [5]. Moreover, the koff stood at 0.000377 s⁻¹ in the experiment with human IL-33 WT (R&D) [3] and 0.000301 s⁻¹ with human IL-33 (mm2) [5]. The on-rate (kon) with human IL-33 WT (R&D) [4] was 2.06e+06 M⁻¹ s⁻¹; in the experiment with human IL-33 (mm2) [5], 1.38e+06 M⁻¹ s⁻¹.

The values are drawn from patent US20180037644A1 (Pfizer, published 2018).
